Laboratory results published in paper PMC13061601, “CLCC1 promotes hepatic neutral lipid flux and nuclear pore complex assembly” (Nature, 2026).

Biological target: the molecule itself
Assay: migration on a gel, blot (Supplementary Fig. 8c); without reducing agent; sample and gel conditions not shown

B1: CLCC1 (natural protein, human, UniProt Q96S66 19-551, looked up)
chain: HDDDWIDPTDMLNYDAASGTMRKSQAKYGISGEKDVSPDLSCADEISECYHKLDSLTYKIDECEKKKREDYESQSNPVFRRYLNKILIEAGKLGLPDENKGDMHYDAEIILKRETLLEIQKFLNGEDWKPGALDDALSDILINFKFHDFETWKWRFEDSFGVDPYNVLMVLLCLLCIVVLVATELWTYVRWYTQLRRVLIISFLFSLGWNWMYLYKLAFAQHQAEVAKMEPLNNVCAKKMDWTGSIWEWFRSSWTYKDDPCQKYYELLLVNPIWLVPPTKALAVTFTTFVTEPLKHIGKGTGEFIKALMKEIPALLHLPVLIIMALAILSFCYGAGKSVHVLRHIGGPESEPPQALRPRDRRRQEEIDYRPDGGAGDADFHYRGQMGPTEQGPYAKTYEGRREILRERDVDLRFQTGNKSPEVLRAFDVPDAEAREHPTVVPSHKSPVLDTKPKETGGILGEGTPKESSTESSQSAKPVSGQDTSGNTEGSPAAEKAQLKSEAAGSPDQGSTYSPARGVAGPRGQDPVSSPCG
notes: CLCC1, human
stoichiometry N: 2
